The source of these data is PMC9457990, “Evolution of Interferon-Gamma Aptamer with Good Affinity and Analytical Utility by a Rational In Silico Base Mutagenesis Post-SELEX Strategy”.

B1: B1-4 (ssDNA)
DNA: CCGCCCAAATCCCTAAGAGAAGACTGTAATGACATCAAACCAGACACACTACACACGCA
B2: M2-6 (ssDNA)
DNA: CCGCCCAAATCCCTAAGGGAAGACTGTAATGACATCAAACCAGACACATTACACACGCA
B3: M4-10 (ssDNA)
DNA: CCGCCCAAATCCCTAAGTGAAGACTGGATTGACATCAAACCAGTCACACTACACACGCA
B4: M3-6 (ssDNA)
DNA: CCGCCCAAATCCCTAAGTGAAGACTGGAATGACATCAAACCAGTCACACTACACACGCA
B5: M5-5 (ssDNA)
DNA: CCGCCCAAATCCCGAAGGGAAGAGTGTAATGACGTCAAACCAGACACATTACACACGCA
B6: M1-8 (ssDNA)
DNA: CCGCCCAAATCCCTAAGGGAAGACTGTAATGACATCAAACCAGACACACTACACACGCA

Chain of interferon-gamma (IFN-γ) (P01579 24-161): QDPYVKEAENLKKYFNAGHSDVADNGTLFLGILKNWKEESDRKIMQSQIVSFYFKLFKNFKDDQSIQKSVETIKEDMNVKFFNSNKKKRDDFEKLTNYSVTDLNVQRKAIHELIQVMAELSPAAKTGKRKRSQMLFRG

This data set has as its target interferon-gamma (IFN-γ) (Homo sapiens, UniProt P01579 24-161). Nature of the data set: BLI; PBS pH 7.4, 25 °C; BLI on SA sensors with 500 nM biotinylated aptamer loaded, IFN-γ 125-2000 nM; fluorescence assay in PBS, 250 nM M5-5, MB 1:3, 30 min at 25 °C. Conditions: protein: commercial; chain copies: 2; label: biotin (BLI).
For the molecule B1, binding was characterised by a dissociation constant (Kd) of 914 nM. With B2, binding was put at a Kd of 482 nM. Under B3 stands 277 nM; under B4, 267 nM; under B5, 106 nM.

Turning to B6, the Kd (in general, the constant that tells how readily two partners part at equilibrium) is 440 nM.
